Columns and labels:
Thrombin = target: T1, Thrombin (Homo sapiens, UniProt P00734); test: Chromogenic substrate enzyme inhibition assay, thrombin; format: biochemical; conditions: substrate S2366, read-out: KD1 IC50
T1 construct: purchased Haematologic Technologies
Text: (§1) The following synthetic substrates were used to measure enzyme activities: Spectrozyme® fvIIa (American Diagnostica, Stamford, Conn.) for HGFA and ChromozymtPA (Roche Molecular Biochemicals, Indianapolis, Ind.) for tissue factor/FVIIa. The following substrates were from Diapharma, Westchester, Ohio: S2222 for factor Xa, S2302 for plasma kallikrein, S2366 for activated protein C, thrombin, hepsin and plasmin, S2444 for uPA, S2288 for factor XIa, FXIIa and tPA, S2765 for matriptase complement factor C1s, chymotrypsin and trypsin. Except for bovine trypsin (Worthington, Lakewood, N.J.), all enzymes used were of human origin. Factor Xa, factor XIa, thrombin, activated protein C and plasmin were from Haematologic Technologies (Essex Junction, Vt.). […]
(§2) The inhibitory activity of KD1 towards a panel of trypsin-like serine proteases was examined using assay conditions as described for measuring the inhibitory activity of HAI-1B ectodomain. […] After 20 min. incubation at room temperature, the appropriate substrate was added and the linear rates of substrate hydrolysis were determined by measuring the change in absorbance at 405 nm on a kinetic microplate reader (Molecular Devices, Sunnyvale, Calif.). […]

uPA = target: T2, uPA (Homo sapiens, UniProt P00749); test: Chromogenic substrate enzyme inhibition assay, uPA; format: biochemical; conditions: substrate S2444, read-out: KD1 IC50
T2 construct: purchased Chemicon
Text: as §1, §2

IC50 (Thrombin): > 1000 nM | IC50 (uPA): > 1000 nM
Substance: KD1: The first Kunitz domain of human HAI-1B, amino acids 246-303 (SEQ ID NO: 4), with polyhistidine leader, expressed in E. coli
